Consider three molecules from patent US5876971A, “Thrombin inhibitor from the saliva of protostomia” (Schering Aktiengesellschaft, priority 1992, dated 1999).

Assay [1] deals with thrombin. Kind of assay: Inhibition of the thrombin activity in the amidolytic test (substrate S2238). The assay is classed as biochemical. As to conditions: inhibitor 6 nmol/l; thrombin 0.03 IU. How it is done:
Inhibition of the thrombin activity in the amidolytic test
In a microtiterplate, 80 μl of 100 mmol/l of tris/HCl, pH 7.4; 150 mmol/l of NaCl and 0.03 IU ([…]) of thrombin and 100 μl of a diluted solution of the protein of the invention (32-630 ng) are incubated for 10 minutes at 37° C. and then mixed with 100 μl (50 nmol) of substrate S2238 (Kabi Vitrum). After an incubation of 30 minutes at 37° C., the absorption is measured at 405 nm. 630 ng (117 nmol/l) inhibits the activity of the thrombin to approximately 50%. […] (See FIG. 2)

Assay [2] has as its system thrombin. Kind of assay: Inhibition of the thrombin activity in the clotting test (fibrinogen cleavage). It is filed as biochemical. Here is the method:
Inhibition of the thrombin activity in the clotting test
In a microtiterplate, which is coated with bovine serum albumin (0.1% in 0.1 mol/l of NaHCO3, pH 9.5), 80 μl of 20 mmol/l of HEPES, pH 7.4; […] of NaCl; 20 μl of 20 mmol/l of CaCl2; 100 μl of a diluted solution of the protein of the invention (5-50 ng) and 20 μl of thrombin (0.03 IU=0.03 International Units) are pipetted. After an incubation of 2 minutes at 37° C., 100 μl of fibrinogen (5 mg/ml) is added and incubated for 40 minutes at 37° C. Then, the absorption is measured at 405 nm. […] (See FIG. 3)

Assay [3] has as its target thrombin.
The target of assay [4] is thrombin. This is another data set of the same source.
For assay [5], the target named is thrombin. The source holds these as a separate data set.
The target in assay [6] is thrombin. This is another data set of the same source.

With hirudin, the “inhibition of thrombin activity in the amidolytic test” value in assay [1] is on record as 85%. For the same molecule, the “inhibition of fibrinogen cleavage (clotting)” value in assay [2] (inhibitor 8 nmol/l (45 ng), thrombin 0.03 IU (1.27 nmol/l), absorption at 405 nm) is “complete inhibition”.
In assay [3], “thrombin inhibitor purified from the saliva of Triatoma pallidipennis (protein of the invention, purified according to Example 1)” gave an inhibition of thrombin-induced blood platelet aggregation (aggregometer) of 15 ng/mL. The same molecule registered an inhibition of the thrombin activity in the clotting test (fibrinogen cleavage, absorption at 405 nm) in assay [4] of 8 nmol/L. The inhibition of the thrombin activity in the amidolytic test (substrate S2238, absorption at 405 nm); concentration giving approximately 50% inhibition in assay [5] is 117 nmol/L. This molecule returned a lengthening of the thrombin time (plasma clotting after adding thrombin) in assay [6] of 35 nmol/L.

B1: purified fraction: recombinant mature protein (Ti28=seq. id. no. 2) produced in E. coli, purified by ion exchange and thrombin affinity chromatography (protein)
chain: AEGDDCSLEKAMGDFKPEEFFNGTWYLAHGPDVTSPAVCQKFTTSGSKGFTQIVEIGYNKFESNVKFQCNQVDNKNDEQYSFKCKGSDNTEFEADFTFISVSYDNFALVCRSIIFTSQPKEDDYLVFERTKSDTDPDANEIC
For B1, the “inhibition of thrombin activity in the clotting test (qualitative)” value in assay [2] (material from transformed E. coli, concentration not given) is “same inhibitory activity as the saliva protein”.
